Laboratory results from publication PMC4074040.

Biological target: BBPLo, bilin-binding protein from Lonomia obliqua (a variant of lopap) (Lonomia obliqua)
Experiment: SEC; analytical gel filtration of recombinant, refolded BBPLo on Superdex 75, calibrated with standards (myoglobin, NP2, IPP, BSA); monomers to dimer

## BBPLo, bilin-binding protein from Lonomia obliqua (a variant of lopap) (natural protein)
  stoichiometry N: 2
